Test: yeast display, Sf9 membrane polyspecificity reagent, FACS + sequencing; frameworks hold sequencing errors
Summary of the method: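 Galactose-induced (36–48 hours) yeast carrying a synthetic nanobody display library were exposed to 10% biotinylated, detergent-solubilized Sf9 membrane reagent at 4 °C for 1 hour. FACS followed streptavidin microbead enrichment, using low and high (top ~1%) gates for expression (anti-HA) and reagent binding (streptavidin). Colony PCR, MiSeq 2 × 250 sequencing and CDR-length filtering followed. Labels for polyreactivity reflect the gate of origin.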

Sequence: QVQLVESGGGLVQAGGSLRLSCAASGSIFTYNAMGWYREAPGKERELVAAIRLSGGSTYYADSVKGRFTISRDNAKNTVYLQMNSLKPEDTAVYYCAAESAAASAVYSVEYDYWGQGTQVTVSS
- polyreactivity (PSR sort gate): low polyreactivity

Sequence: QVQLVESGGGLVQAGGSLRLSCAASGSIFTYYAMGWYRQAPGKERELVAAISYSGGTTYYADSVKGRFTISRDNAKNTVYLQMNSLKPEDTAVYYCNVDADYESQWLSVGYDYWGQGTQVTVSS
- polyreactivity (PSR sort gate): low polyreactivity

Sequence: QVQLVESGGGLVQAGGSLRLSCAASGSIFVDNAMGWYRQAPGKERELVAAINWSGGSTYYADSVKGRFTISRDNAKNTVYLQMNSLKQEDTAVYYCNAARPVQTWDEQSWYDYWGQGTQVTVSS
- polyreactivity (PSR sort gate): low polyreactivity

Sequence: QVQLVESGGGLVQAGGSLRLSCAASGSIFVDYAMGWYRQAPGKERELVAAISSGGSTNYADSVKGRFTISRDNAKNTVYLQMNSLKPEDTAVYYCAADGSYGYDYWGQGTQVTVSS
- polyreactivity (PSR sort gate): low polyreactivity

Sequence: QVQLVESGGGLVQAGGSLRLSCAASGSIFVDYAMGWYRQAPGKERELVASISGGGSSTYYADSVMGRFTISRDNAKNTVYLQMNSLKPEDTALYYCARDGVRSSSEYDYWGQGTQVTVSS
- polyreactivity (PSR sort gate): low polyreactivity

Sequence: QVQLVESGGGLVQAGGSLRLSCAASGSIFVENAMGWYRQAPGEERELVAAISSSGDSTYYADSVKGRFTISRDNAKNTVYLQINSLKPEDTAVYYCNRRRPRYYWGQGTQVTVSS
- polyreactivity (PSR sort gate): high polyreactivity

Sequence: QVQLVESGGGLVQAGGSLRLSCAASGSIFVEYAMGVYREAPGKERELVATINLSAGSTYYADSVKGRFTISRDNAMNTGYLQMNRLKPEDTAVYYCAALYYWDQPQLEFSYLGQGTQVTVSS
- polyreactivity (PSR sort gate): low polyreactivity

Sequence: QVQLVESGGGLVQAGGSLRLSCAASGSIFVEYDMGWYIQAPGKERELVADISGTGNTYYADSVKGRFTISRDNAQNTVYLQMNSLKPEDTSVYYCAAGTYFTNYWSPFVWYDYWGQGTQVTVSS
- polyreactivity (PSR sort gate): high polyreactivity

Sequence: QVQLVESGGGLVQAGGSLRLSCAASGSIFVFYAMGWYRQAPGKERELVAAIDVSDGSTYYADSVKGRFTISRDNAKNTVYLQMNSLKPEDTAVYYCATYVVTYYWWYTYDYWGQGTQVTVSS
- polyreactivity (PSR sort gate): low polyreactivity

Sequence: QVQLVESGGGLVQAGGSLRLSCAASGSIFVGNAMGWSRQAPGKERELVAAISLSGGSTYFADSVKGRFTISRDNAKNTVYLQMNSLKPDDTAVYYCAAQTKPASRVTYYWYYYWGQGTQVTVSS
- polyreactivity (PSR sort gate): low polyreactivity

Sequence: QVQLVESGGGLVQAGGSLRLSCAASGSIFVGNAMGWYRQAPGKERELVAAISSSGGSTYYADSVKGRFTISRDNAKNTVYLQMNSLKPEDTAVYYCAADTYSTSVYYYWGQGTQVTVSS
- polyreactivity (PSR sort gate): low polyreactivity

Sequence: QVQLVESGGGLVQAGGSLRLSCAASGSIFVGNAMGWYRQAPGKERELVAAITRSGGRTYYADSVKGRFTISRDNAKNTVYLQMNSLKPEDTAVYYCNAVYWTVYSREYDYWGQGTQVTVSS
- polyreactivity (PSR sort gate): high polyreactivity

Sequence: QVQLVESGGGLVQAGGSLRLSCAASGSIFVGNAMGWYRQAPGKERELVAGISKSGSRTYYADSVKGRFTISRDNAKNTVYVQMNSLKPEDTSVYYCAAGKVAYYTLDYYWGQGTQVTVSS
- polyreactivity (PSR sort gate): high polyreactivity

Sequence: QVQLVESGGGLVQAGGSLRLSCAASGSIFVGNAMGWYRQAPGKEWELVAAISAGGSTYYADSVKGRFTISRDNAKNTVYLKLNSLKTEDTAVYYCAAYYVRRYSSRPKDDYWGQGTQVTVSS
- polyreactivity (PSR sort gate): low polyreactivity

Sequence: QVQLVESGGGLVQAGGSLRLSCAASGSIFVGYAMGWYRQAPGKERELVAAIRSGGSTKYADSVKGRFTISRDNAKNTVYLQMNSLKAEDTAVYYCNVEVHPYYWVDNFHRFPVLHNYWGQGTQVTVSS
- polyreactivity (PSR sort gate): low polyreactivity

Sequence: QVQLVESGGGLVQAGGSLRLSCAASGSIFVGYAMGWYRQAPGKERELVAAISWSGDSTYYADSVKGRFTISRDNAKNTVYLQMNSLKPEDTAVYYCAVDYAEIGPRREVEYDYWGQGTQVTVSS
- polyreactivity (PSR sort gate): low polyreactivity

Sequence: QVQLVESGGGLVQAGGSLRLSCAASGSIFVGYAMGWYRQAPGKERELVATISSSATSTYYADSVKGRFTISRDNATNTVYLQMNSLKPEDTAVYSCAVERDYGWPIYIRWHFDYWGQGTQVTVAS
- polyreactivity (PSR sort gate): low polyreactivity

Sequence: QVQLVESGGGLVQAGGSLRLSCAASGSIFVGYARGWYRQAPGKERELVAAISFSGGSTYYADSVKGRFTLSRDNAKNTVYLQMNSLKPEDTAVYYCNAYSWYNGIGNYDYWGQGTQVTVSS
- polyreactivity (PSR sort gate): low polyreactivity

Sequence: QVQLVESGGGLVQAGGSLRLSCAASGSIFVGYDMGWYRQAPGKARELVAAITRDGDTNYADSVKGRFTISRDNAKNTVYLQMNSLKPEDTAVYYCAADRWLYSWFFNYDQGDYWGQGTQVTVSS
- polyreactivity (PSR sort gate): low polyreactivity

Sequence: QVQLVESGGGLVQAGGSLRLSCAASGSIFVGYDMGWYRQAPGKERELVASINGGDSTNYADSVKGRFTISRDNAKNTVYLQMNSLKPEDTAVYYCAKDVTYTDEYDYWGQGTQVTVSS
- polyreactivity (PSR sort gate): low polyreactivity

Sequence: QVQLVESGGGLVQAGGSLRLSCAASGSIFVGYDMGWYRQAPGKEREWVAAITSSGGGSTYYADSVKGRFTISRDNAKNTVYLQMNSLKPEDTAVYYCAARTSLWWFLKYDYWGQGTQVTVSS
- polyreactivity (PSR sort gate): low polyreactivity

Sequence: QVQLVESGGGLVQAGGSLRLSCAASGSIFVGYTMGWYRQAPGKETELVADITYNGGTTYYADSVKGRFTISRDNAKNTVYLQMNSLKPEETAVYYCAADYYYACFPVYYWGQGTQVTVSS
- polyreactivity (PSR sort gate): high polyreactivity

Sequence: QVQLVESGGGLVQAGGSLRLSCAASGSIFVGYVMGWYRQAPGKERELVAAISRSGGRTYYADSVKGRFTISRDNAKNTVYLQMNSLKPEDTAVYYCNADVIDLDYDYWGQGTQVTVSS
- polyreactivity (PSR sort gate): low polyreactivity

Sequence: QVQLVESGGGLVQAGGSLRLSCAASGSIFVHNAMGWYRHAPGKERELVAAITWSGGSTYYADSVKGRFTISRDNAKNTVYLQMNSLKPEDTAVYYCAAEDVAAQWAYESPTSYWYYYWGQGTQVTVSS
- polyreactivity (PSR sort gate): low polyreactivity

Sequence: QVQLVESGGGLVQAGGSLRLSCAASGSIFVHYAMGWYRQAPGKERELVARISWRGNTYYADSVKGRFTISRDNAKNTVYLQMNSLKPEDTAVYYCATGQSVIYRYEYWGQGTQVTVSS
- polyreactivity (PSR sort gate): low polyreactivity

Sequence: QVQLVESGGGLVQAGGSLRLSCAASGSIFVINAMGWYRQAPGKERELVAAISYSGTGTYYADSVKGRFTISRDNAKNTVYLQMNSLKAEDTAVYYCAADFYYRYRIYDYWGQGTQVTVSS
- polyreactivity (PSR sort gate): low polyreactivity

Sequence: QVQLVESGGGLVQAGGSLRLSCAASGSIFVIYAMGWYRQAPGKERELVAAITYSGGSTYYADSVKGRFTISRDNAKNTVYLQMNSLKPEDTAVYYCAAVRDSRYYDYDYWGQGTQVTVSS
- polyreactivity (PSR sort gate): low polyreactivity

Sequence: QVQLVESGGGLVQAGGSLRLSCAASGSIFVIYSMGWYRQAPGKERELVARITKSGGSTYYADSVKGRFTISRDNAKITVYLQMNSLKPEDTAVYYCNVGYGGSSDGGYDYWGQGTQVTVSS
- polyreactivity (PSR sort gate): high polyreactivity

Sequence: QVQLVESGGGLVQAGGSLRLSCAASGSIFVKNVMGWYRQAPGKERELVAAISRGSSTYYADSVKGRFTISRDNAKNTVYLQMNSLKPEDTAVYYCAARGPYRLRNDEAFDYWGQGTQVTVSS
- polyreactivity (PSR sort gate): low polyreactivity

Sequence: QVQLVESGGGLVQAGGSLRLSCAASGSIFVKYAMGWYRQAPGKERELVAAISRSGGSTYYADSVKGRFTISRDNAKNTVYLQMNSLKPEDTAVYYCAASNYKGMNYWGQGTQVTVSS
- polyreactivity (PSR sort gate): high polyreactivity

Sequence: QVQLVESGGGLVQAGGSLRLSCAASGSIFVKYAMGWYRQAPGKERELVASITGRGGSTYYADSVKGRFTISRDNAKNTVYLQMNSLKPEDTAVYYCAARVASRHGWHNYWGQGSQVTVSS
- polyreactivity (PSR sort gate): high polyreactivity

Sequence: QVQLVESGGGLVQAGGSLRLSCAASGSIFVLNAMGWYRQAPGKERELVAAITNVGSTYYADSVKGRFTISRDNAKNTVYLQMNSLKPEDTAVYYCNAVVATSKYTDYYWGQGTQVTVSS
- polyreactivity (PSR sort gate): low polyreactivity

Sequence: QVQLVESGGGLVQAGGSLRLSCAASGSIFVLYAMGWYRQAPGKEREFVAAISRSGGSTYYADSVKGRFTISRDNAKNTVYLQMNSLKPEDTAVYYCAASSRLNRWNYYAFDYWGQGTQVTVSS
- polyreactivity (PSR sort gate): high polyreactivity

Sequence: QVQLVESGGGLVQAGGSLRLSCAASGSIFVPYAMGWYRQAPGKERELVAAISNGDSTYYADSVKGRFTISRDNGKNTVYLQMNSLNPEDTAVYYCAAPYAGWRDGGDYWGQGTQVTVSS
- polyreactivity (PSR sort gate): low polyreactivity

Sequence: QVQLVESGGGLVQAGGSLRLSCAASGSIFVPYAMGWYRQAPGKERELVAAISRGGDTNYADSVKGRFTISRDNAKNTVYLQMNSLKPEDTAVYYCNRARHQSSRWHGGYYYWGQGTQVTVSS
- polyreactivity (PSR sort gate): low polyreactivity

Sequence: QVQLVESGGGLVQAGGSLRLSCAASGSIFVPYAMGWYRQAPGKERELVAAISSGGGRTYYADSVKGRFTIARDNAKNTVYLQMNSLKPEDTAVYYCAARYYIGYGHRTYGYDYWGQGTQVTVSS
- polyreactivity (PSR sort gate): high polyreactivity

Sequence: QVQLVESGGGLVQAGGSLRLSCAASGSIFVPYAMGWYRQAPGKERELVAAISSRGGSTYYADSVKGRFTISRDTAKNTVYLQMNSLKPEDTAVYYCNTEISRNYYWALYGYWGQGTQVTVSS
- polyreactivity (PSR sort gate): low polyreactivity

Sequence: QVQLVESGGGLVQAGGSLRLSCAASGSIFVPYAMGWYRQAPGKERELVAAITRSSGSTYYADSVKGRFTISRDNAKNTVYVQMNSLKPQDSAVYYCAADFLLEFVYWGQGTQLTVSS
- polyreactivity (PSR sort gate): low polyreactivity

Sequence: QVQLVESGGGLVQAGGSLRLSCAASGSIFVPYTMGWYTQAPGKERELVASISYSGGTTYYADSVKGRFTISRDNAKNTVYLQMNSLKPEDTAVYYCAADWDESFSYRRYRHYDYWGQGTQVTVSS
- polyreactivity (PSR sort gate): low polyreactivity

Sequence: QVQLVESGGGLVQAGGSLRLSCAASGSIFVQYAMGWYRQAPGKERELVATISDDGSTNYADSVKGRFTISRDNAKNTVYLQMNSLKPEDTAVYYCAADTYYYVGADDYWGQGTQVTVSS
- polyreactivity (PSR sort gate): low polyreactivity

Sequence: QVQLVESGGGLVQAGGSLRLSCAASGSIFVRNAMGWCRQAPGKERELVAAITARGGSTYYADSVKGRFTISRDNAKNTVYLQMNSLKPEDTAVYYCARSYYYRGWAQWRYDYWGQGTQVTVSS
- polyreactivity (PSR sort gate): high polyreactivity

Sequence: QVQLVESGGGLVQAGGSLRLSCAASGSIFVRNAMGWYRPAPGKERELVADITSRGSSTYYADSVKGRFTISRDNAKNTVYLQMNSLKPEDTAVYYCNAVRYYVRTYIYRHDRGMDYWGQGTQVTVSS
- polyreactivity (PSR sort gate): low polyreactivity

Sequence: QVQLVESGGGLVQAGGSLRLSCAASGSIFVRNAMGWYRQAPGKEREFVAIRFSGATTYYADSVKGRFTISRDNAKNTVYLQMNSLKPEDTAVYYCAAVARTYGRTSYYWGQGTQVTVSS
- polyreactivity (PSR sort gate): high polyreactivity

Reference: the nanobody polyreactivity screen of Harvey et al. (2022)
